Assay results published in patent publication US10155792B2, “Albumin binding polypeptide” (priority 2012, dated 2018).
Where two headings read alike, the source gives them in different places. Where no end group is shown, it is not given here.

Columns and labels:
clostripain [1] = tested on: T1, clostripain; assay: Clostripain cleavage, SDS-PAGE analysis; assay type: in vitro ADME, Clostridium histolyticum; details: Clostridium histolyticum, clostripain (isolated protease), pH 7.6, 5 U clostripain/mg, 25° C.; for metabolised at 22 h: read-out: cleaved after 22 h
T1 construct: is a two-chain proteinase that can be isolated from Clostridium histolyticum; purchased Worthington LS001641
Protocol: (§1) Enzymatic digestion of PEP07843 and the three new variants was performed using clostripain from Worthington (No. LS001641) in 25 mM NaPi buffer pH 7.6, 150 mM NaCl, 1 mM CaAc, 2.5 mM DTT. Clostripain was dissolved freshly before initiation of the experiment.
(§2) In the following experiment, the clostripain amount was increased to 5 U/mg ABD variant, and the samples were incubated for 0, 1, 2, 4, 6, 8 and 22 h at 25° C. in a thermomixer with mild shaking at 600 rpm.
(§3) Reactions were stopped by addition of 4×SDS sample buffer followed by incubation for 15 min at 70° C. (for SDS PAGE analysis) or by addition of trifluoroacetic acid (TFA) to a final concentration of 0.3%, which lowers the pH to approximately 2, and freezing at −80° C. (for LC/MS analysis).
(§4) Controls were reactions without clostripain and omitting DTT which […] clostripain activity.
(§5) Analysis of samples incubated with clostripain for up to 22 h was performed by SDS-PAGE using NuPAGE 4-12% gels from Invitrogen (see FIG. 3). In FIG. 3, lane S indicates sharp molecular weight marker standard (molecular weights 3.5, 10, 15, 20, 30, 40, 50, 60, 80, 110 and 160 kDa), lane B indicates a blank sample with clostripain but no ABD variant, and lanes 0-22 indicate ABD variant samples taken at the indicated incubation times in hours.

clostripain [2] = target: T2, clostripain (Hathewaya histolytica, UniProt P09870); assay: Clostripain cleavage, SDS-PAGE analysis; assay type: in vitro ADME, Clostridium histolyticum; details: 5 U clostripain/mg
T2 construct: is a two-chain proteinase that can be isolated from Clostridium histolyticum; purchased Worthington LS001641
Protocol: as §1, §2, §3, §4, §5

clostripain [3] = tested on: T1, clostripain; assay: Clostripain cleavage, LC/MS analysis; assay type: in vitro ADME, Clostridium histolyticum; details: Clostridium histolyticum, clostripain (isolated protease), read-out: remaining % ABD variant; for remaining at 0.25 h: 15 min; for remaining at 0.5 h: 30 min; for remaining at 20 h: 1200 min
Protocol: as §1
(§6) In the first experiment, 0.2 U clostripain/mg ABD variant was incubated for up to 20 h at 25° C., but only a low level of cleavage was detected by SDS-PAGE and LC/MS analysis.
as §2, §3
(§7) LC/MS analyses were performed using an Agilent 1100 LC/MSD system, equipped with API-ESI and a single quadruple mass analyzer. 10 μl of each cleavage mixture was injected on a Zorbax 300SB-C8 Narrow-Bore column (2.1×150 mm, 3.5 μm, Agilent Technologies) at a flow-rate of 0.5 ml/min. Elution was performed using a linear gradient of 10-70% solution B for 15 min at 0.5 ml/min. The separation was performed at 30° C. The ion signal and the absorbance at 280 and 220 nm were monitored.
(§8) FIGS. 4 and 5 show the LC/MS analysis of ABD variant samples incubated for up to 20 h with 0.2 U and up to 22 h with 5 U respectively of clostripain per mg ABD variant. The main peak was integrated, and the area transformed to % of remaining intact ABD variant at t=0.
(§9) The main peak was integrated and the area transformed to % of remaining intact ABD at t=0. The LC/MS analysis described above was used for analysis.

clostripain [4] = target: T2, clostripain; assay: Clostripain cleavage, LC/MS analysis; assay type: in vitro ADME, Clostridium histolyticum
Protocol: as §1, §6, §2, §3, §7, §8, §9

[5] = target: T3, cynomolgus serum albumin (CSA) (Macaca fascicularis, UniProt A2V9Z4); assay: Biacore analysis of binding to CSA; details: CSA immobilized, Biacore2000; relative KD only
T3 construct: CSA (purified in-house from cynomolgus serum); from tissue; host or cells: cynomolgus serum

[6] = target: human serum albumin (HSA) (Homo sapiens, UniProt P02768); assay: biochemical
Protocol: Biosensor analysis on a Biacore2000 instrument (GE Healthcare) was performed with HSA (Albucult®, Novozymes), CSA (purified in-house from cynomolgus serum), RSA (Sigma-Aldrich, Cat. No. A6272) and MSA (Sigma-Aldrich, Cat. No. A3559) immobilized by amine coupling onto the carboxylated dextran layer of the surfaces of CM-5 chips (research grade; GE Healthcare) according to the manufacturer's recommendations.
ABD variants were used as analytes and were injected in duplicates over the chip at three analyte concentrations (2.5, 10 and 40 nM). The association phase was 5 min followed by a long dissociation phase (60 min) to account at least partially for the slow off-rate of the ABD variants. […] Therefore, all KD's are given as relative KD values only.
The results were analyzed with BiaEvaluation software (GE Healthcare). Curves of the blank surface and buffer injection were subtracted from the curves of the ligand surfaces.
The Biacore 2000 instrument has a technical limitation which hinders measurements of very high affinity. […] After subtraction of reference surface and buffer injection, curves were fitted to a 1:1 (Langmuir) binding model using BIAevaluation software with correction for mass transfer and with RUmax set as a local parameter.

[7] = Circular dichroism analysis, variable temperature measurement; assay type: physicochemical
Protocol: Secondary structure of ABD variants was analyzed by circular dichroism (CD) spectroscopy using a scan from 195-250 nm before and after the variable temperature measurement (see below). Purified albumin binding polypeptide variants were diluted in 1×PBS, to final concentration of 0.5 mg/ml. Circular dichroism (CD) analysis was performed on a Jasco J-810 spectropolarimeter in a cell with an optical path-length of 1 mm. Alpha helical proteins show typical minima at 208 and 222 nm.
Variable temperature measurement was used to determine the melting temperature, Tm. In these measurements, the absorbance was measured at 221 nm from 20° C. to 90° C., with a temperature slope of 5° C./min.
The melting temperatures of the ABD variants were calculated by determining the midpoint of the transtition in the CD vs. temperature plot.
The CD spectra before and after heat treatment were compared in order to detect potential heat denaturation of the proteins. […] FIGS. 2A and 2B show the CD spectra of the new ABD variants and of PEP07843 (SEQ ID NO:27) for comparison.

[8] = pH 7.6, 0.2 U clostripain/mg, 120 min
[9] = pH 7.6, 5 U clostripain/mg, 2 h

T2 sequence (P09870 191-526): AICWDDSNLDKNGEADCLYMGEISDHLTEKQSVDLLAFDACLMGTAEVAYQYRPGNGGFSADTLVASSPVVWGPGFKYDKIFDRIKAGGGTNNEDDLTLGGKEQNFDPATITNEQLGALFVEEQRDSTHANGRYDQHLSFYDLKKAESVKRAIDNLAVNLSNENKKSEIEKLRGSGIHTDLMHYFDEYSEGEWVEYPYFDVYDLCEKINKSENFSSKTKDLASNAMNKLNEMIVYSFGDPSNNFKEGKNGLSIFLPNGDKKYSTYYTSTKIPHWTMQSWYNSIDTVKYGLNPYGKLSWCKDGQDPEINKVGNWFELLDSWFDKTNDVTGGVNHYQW
T2 sequence (P09870 51-181): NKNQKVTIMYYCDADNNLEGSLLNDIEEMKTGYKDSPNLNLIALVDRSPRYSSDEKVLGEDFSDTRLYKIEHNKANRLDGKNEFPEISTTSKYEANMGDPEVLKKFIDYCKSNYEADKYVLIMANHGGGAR
T3 sequence (A2V9Z4 25-608): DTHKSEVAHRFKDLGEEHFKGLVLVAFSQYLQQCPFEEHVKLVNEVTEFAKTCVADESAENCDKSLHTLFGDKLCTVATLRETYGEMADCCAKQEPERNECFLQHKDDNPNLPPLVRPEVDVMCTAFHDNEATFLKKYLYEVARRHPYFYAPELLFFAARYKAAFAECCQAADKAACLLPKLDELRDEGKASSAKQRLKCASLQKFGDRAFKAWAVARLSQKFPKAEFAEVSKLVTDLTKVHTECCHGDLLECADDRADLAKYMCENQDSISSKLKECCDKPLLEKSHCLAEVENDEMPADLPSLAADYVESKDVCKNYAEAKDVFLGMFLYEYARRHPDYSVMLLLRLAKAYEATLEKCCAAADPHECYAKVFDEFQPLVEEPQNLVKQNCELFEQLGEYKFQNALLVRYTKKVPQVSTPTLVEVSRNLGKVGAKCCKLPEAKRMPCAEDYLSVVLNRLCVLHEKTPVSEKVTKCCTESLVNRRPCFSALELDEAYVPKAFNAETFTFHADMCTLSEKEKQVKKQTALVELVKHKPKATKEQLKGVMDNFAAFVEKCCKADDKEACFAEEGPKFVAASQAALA
Sequence of human serum albumin (HSA) (P02768 25-609): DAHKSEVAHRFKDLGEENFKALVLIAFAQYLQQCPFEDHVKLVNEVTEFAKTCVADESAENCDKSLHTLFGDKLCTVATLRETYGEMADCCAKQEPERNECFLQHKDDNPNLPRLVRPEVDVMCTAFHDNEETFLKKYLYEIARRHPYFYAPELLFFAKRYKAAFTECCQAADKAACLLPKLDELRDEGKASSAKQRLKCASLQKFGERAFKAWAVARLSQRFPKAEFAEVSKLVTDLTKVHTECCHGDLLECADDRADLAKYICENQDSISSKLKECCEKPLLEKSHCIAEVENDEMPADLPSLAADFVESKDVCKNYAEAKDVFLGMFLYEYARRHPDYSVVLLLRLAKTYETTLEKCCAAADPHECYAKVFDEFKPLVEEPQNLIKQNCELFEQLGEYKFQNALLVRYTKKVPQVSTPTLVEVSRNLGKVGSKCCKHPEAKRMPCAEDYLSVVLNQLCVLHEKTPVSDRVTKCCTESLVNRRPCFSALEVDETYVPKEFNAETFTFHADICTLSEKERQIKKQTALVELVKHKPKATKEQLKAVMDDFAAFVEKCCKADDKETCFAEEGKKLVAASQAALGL

Sequence	metabolised at 22 h (clostripain [1]) [%]	resistance to clostripain cleavage, comparison (clostripain [2])	incubation time at which some cleavage was seen (clostripain [2]; 25° C.) [h]	cleaved after 22 h (clostripain [2]; 25° C.) [%]	remaining at 2 min (clostripain [3]; pH 7.6, 0.2 U clostripain/mg) [%]	remaining at 5 min (clostripain [3]; pH 7.6, 0.2 U clostripain/mg) [%]	remaining at 0.25 h (clostripain [3]; pH 7.6, 0.2 U clostripain/mg) [%]	remaining at 0.5 h (clostripain [3]; pH 7.6, 0.2 U clostripain/mg) [%]	remaining at 2 h (clostripain [3]; [8]) [%]	remaining at 20 h (clostripain [3]; pH 7.6, 0.2 U clostripain/mg) [%]	remaining at 1 h (clostripain [3]; pH 7.6, 5 U clostripain/mg) [%]	remaining at 2 h (clostripain [3]; [9]) [%]	remaining at 4 h (clostripain [3]; pH 7.6, 5 U clostripain/mg) [%]	remaining at 6 h (clostripain [3]; pH 7.6, 5 U clostripain/mg) [%]	remaining at 8 h (clostripain [3]; pH 7.6, 5 U clostripain/mg) [%]	remaining at 22 h (clostripain [3]; pH 7.6, 5 U clostripain/mg) [%]	remaining % ABD variant (clostripain [4]; 0.2 U clostripain/mg, 0 min) [%]	remaining % ABD variant (clostripain [4]; 5 U clostripain/mg, 0 h) [%]	Kd [5] [pM]	Kd [6] [pM]	also measured
GSSLAEAKEAANAELDSYGVSDFYKSLIDKAKTVEGVEALKDAILAALP [PEP12381]	~100	more resistant to clostripain cleavage as compared to PEP07843	4 to 8	~100	101	100	100	100	99	97	91	79	60	44	31	0	100	100	–	–	–
GSSLAEAKEAANAELDSYGVSDFYKNLIDKAKTVEGVEALKDAILAALP [PEP12379]	~90	more resistant to clostripain cleavage as compared to PEP07843	4 to 8	~90	100	101	101	99	99	96	92	85	71	58	47	4	100	100	–	–	–
GSSLAEAKEAANAELDSYGVSDFYKRLIDKAKTVEGVEALKDAILAALP [PEP07843, reference compound]	–	–	–	–	100	101	100	100	–	54	46	–	0	0	0	0	100	100	9.8	6.7	metabolised (clostripain [1]; 4-22 h, read-out: cleaved after 4-22 h): 100%; metabolised at 2 h (clostripain [1]; 2 h, read-out: cleaved after 2 h): ~75%; cleaved after 4-22 h (clostripain [2]; 25° C., 4-22 h): 100%; cleaved after 2 h (clostripain [2]; 25° C., 2 h): ~75%; remaining % ABD variant (clostripain [4]; 0.2 U clostripain/mg, 120 min): 94%; remaining % ABD variant (clostripain [4]; 5 U clostripain/mg, 2 h): 15%
GSSLAEAKEAANAELDSYGVSDFYKKLIDKAKTVEGVEALKDAILAALP [PEP12380]	~50	highest level of resistance to cleavage	6 to 8	~50	100	101	101	101	100	100	96	93	84	77	69	30	100	100	11	7.5	thermal stability, comparison of variants [7]: highest thermal stability of the three variants; protease stability, comparison (clostripain [4]; as compared to PEP12379, PEP12381 and PEP07843): superior properties with respect to protease stability; increase of degradation products over time, comparison (clostripain [4]; both low and high clostripain concentrations): lowest increase of degradation products over time
